Test results reported in the supplement of paper PMC7125110.
± gives the standard error. Variants at the floor of the assay were thinned out.

B1: glmS ribozyme (parent)
chain: AUAAAAGCGCCAGAACUACAGAAAUGUAGUUGACGAGGAGGAGGUUUAUCGAAUUUUCGGCGGAUGCCUCCAAA

Experiments:
Settings in all cases: with glucosamine-6-phosphate
glucosamine-6-phosphate [1] = variants of: B1; experiment: self-cleavage kobs at 40 uM GlcN6P; higher = faster cleavage; RNA array
Method in brief: (§1)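 On sequenced MiSeq chips, barcoded ribozyme variants were made in situ by E. coli RNA polymerase and followed at 37 °C through a hybridised Cy3 probe. Glucosamine-6-phosphate was flowed in at 40 μM to 10 mM in HEPES/KCl/Mg(OAc)2 buffer. Exponential fits to normalised per-tile medians gave kobs, and weighted Michaelis–Menten fits gave kcat and KM.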

glucosamine-6-phosphate [2] = variants of: B1; experiment: self-cleavage kobs at 160 uM GlcN6P; higher = faster cleavage; RNA array
Method in brief: as §1

glucosamine-6-phosphate [3] = variants of: B1; experiment: self-cleavage kobs at 640 uM GlcN6P; higher = faster cleavage; RNA array
Method in brief: as §1

glucosamine-6-phosphate [4] = variants of: B1; experiment: self-cleavage kobs at 2500 uM GlcN6P; higher = faster cleavage; RNA array
Method in brief: as §1

glucosamine-6-phosphate [5] = variants of: B1; experiment: self-cleavage kobs at 10000 uM GlcN6P; higher = faster cleavage; RNA array
Method in brief: as §1

Row | Variant | self-cleavage kobs at 40 uM GlcN6P (glucosamine-6-phosphate [1]) | self-cleavage kobs at 160 uM GlcN6P (glucosamine-6-phosphate [2]) | self-cleavage kobs at 640 uM GlcN6P (glucosamine-6-phosphate [3]) | self-cleavage kobs at 2500 uM GlcN6P (glucosamine-6-phosphate [4]) | self-cleavage kobs at 10000 uM GlcN6P (glucosamine-6-phosphate [5])
1 | C70G | 0.000246 ± 5.2e-05 s⁻¹ | 0.000401 ± 9.4e-05 s⁻¹ | 0.0014 ± 0.00021 s⁻¹ | 0.000576 ± 4.7e-05 s⁻¹ | 0.00395 ± 0.00093 s⁻¹
2 | C61U A64C | < 1e-05 s⁻¹ | – | – | < 1e-05 s⁻¹ | < 1e-05 s⁻¹
3 | G7C G32C G41U U47G U56C | – | < 1e-05 s⁻¹ | < 1e-05 s⁻¹ | < 1e-05 s⁻¹ | –
4 | A64U C68A | < 1e-05 s⁻¹ | – | < 1e-05 s⁻¹ | – | < 1e-05 s⁻¹
5 | A6C U57C | – | < 1e-05 s⁻¹ | < 1e-05 s⁻¹ | < 1e-05 s⁻¹ | < 1e-05 s⁻¹
6 | C8G C11G G43A | – | < 1e-05 s⁻¹ | < 1e-05 s⁻¹ | < 1e-05 s⁻¹ | –
7 | C8A G9A G37U A39G | – | < 1e-05 s⁻¹ | – | – | –
8 | C8G G35A | – | < 1e-05 s⁻¹ | – | – | < 1e-05 s⁻¹
9 | C8U A12C A36G G37A | – | < 1e-05 s⁻¹ | – | – | –
10 | C8U A15U | – | < 1e-05 s⁻¹ | < 1e-05 s⁻¹ | < 1e-05 s⁻¹ | –
11 | G62C U65C | < 1e-05 s⁻¹ | < 1e-05 s⁻¹ | < 1e-05 s⁻¹ | < 1e-05 s⁻¹ | –
12 | G7A G43C | – | < 1e-05 s⁻¹ | < 1e-05 s⁻¹ | < 1e-05 s⁻¹ | < 1e-05 s⁻¹
13 | A6C G41U C68U C70A | – | < 1e-05 s⁻¹ | – | 3.76e-05 ± 1.6e-05 s⁻¹ | –
14 | C8U G32A | – | < 1e-05 s⁻¹ | – | < 1e-05 s⁻¹ | < 1e-05 s⁻¹
15 | C8U G29U C34U U46G A53G | – | < 1e-05 s⁻¹ | < 1e-05 s⁻¹ | < 1e-05 s⁻¹ | –
16 | A6G G38A G43U A48U A52C U69G | – | < 1e-05 s⁻¹ | – | < 1e-05 s⁻¹ | –
17 | A6C C8U C67A C70U | – | < 1e-05 s⁻¹ | – | – | –
18 | C8A A33C G35U G63U | – | < 1e-05 s⁻¹ | < 1e-05 s⁻¹ | < 1e-05 s⁻¹ | –
19 | A6C C11U C16U U30G A39U G41U U54G U69G | – | < 1e-05 s⁻¹ | – | – | –
20 | G62A C67A | < 1e-05 s⁻¹ | – | – | – | < 1e-05 s⁻¹
21 | G7A C71G | – | < 1e-05 s⁻¹ | – | – | –
22 | G7A G59C | – | < 1e-05 s⁻¹ | < 1e-05 s⁻¹ | – | –
23 | A6G C8A A48C | – | < 1e-05 s⁻¹ | – | – | –
24 | A6U G38U U47G | – | < 1e-05 s⁻¹ | – | – | –
25 | C8U A15U U31G | – | < 1e-05 s⁻¹ | < 1e-05 s⁻¹ | – | –
26 | G63U A64C C67G C70U | < 1e-05 s⁻¹ | – | < 1e-05 s⁻¹ | – | < 1e-05 s⁻¹

Row | Variant | self-cleavage kobs at 40 uM GlcN6P (glucosamine-6-phosphate [1]) | self-cleavage kobs at 160 uM GlcN6P (glucosamine-6-phosphate [2]) | self-cleavage kobs at 640 uM GlcN6P (glucosamine-6-phosphate [3]) | self-cleavage kobs at 2500 uM GlcN6P (glucosamine-6-phosphate [4]) | self-cleavage kobs at 10000 uM GlcN6P (glucosamine-6-phosphate [5])
27 | G7A G37U | – | < 1e-05 s⁻¹ | < 1e-05 s⁻¹ | < 1e-05 s⁻¹ | < 1e-05 s⁻¹
28 | A6U G44U C61U | – | < 1e-05 s⁻¹ | < 1e-05 s⁻¹ | < 1e-05 s⁻¹ | –
29 | C8U G9C G62A U65G | – | < 1e-05 s⁻¹ | – | < 1e-05 s⁻¹ | –
30 | G7U G32U A33C U47A G59A | – | < 1e-05 s⁻¹ | – | – | –
31 | G63U G66U | < 1e-05 s⁻¹ | – | < 1e-05 s⁻¹ | < 1e-05 s⁻¹ | < 1e-05 s⁻¹
32 | G63U G66C | < 1e-05 s⁻¹ | < 1e-05 s⁻¹ | – | < 1e-05 s⁻¹ | < 1e-05 s⁻¹
33 | C8U U30C G59U | – | < 1e-05 s⁻¹ | < 1e-05 s⁻¹ | < 1e-05 s⁻¹ | –
34 | U2C G9U C58U | – | < 1e-05 s⁻¹ | – | – | < 1e-05 s⁻¹
35 | G7U G37U | – | < 1e-05 s⁻¹ | – | – | < 1e-05 s⁻¹
36 | G9A U30G G59C | – | < 1e-05 s⁻¹ | < 1e-05 s⁻¹ | – | –
37 | C8A G63A | – | < 1e-05 s⁻¹ | – | < 1e-05 s⁻¹ | < 1e-05 s⁻¹
38 | A64G U65A C68G | < 1e-05 s⁻¹ | – | – | – | –
39 | G9A A42G G44C U56G U65G | – | < 1e-05 s⁻¹ | < 1e-05 s⁻¹ | – | –
40 | C8A G13A G37U C67U C68U | – | 8.8e-05 ± 3.5e-05 s⁻¹ | 0.000297 ± 8.5e-05 s⁻¹ | – | –
41 | G9A U65G C71G | – | < 1e-05 s⁻¹ | < 1e-05 s⁻¹ | < 1e-05 s⁻¹ | –
42 | G7U U47A A52C A53U U55G C61U | – | < 1e-05 s⁻¹ | < 1e-05 s⁻¹ | < 1e-05 s⁻¹ | –
43 | C68U U69G C71A | < 1e-05 s⁻¹ | – | – | – | –
44 | A6G U46C U57G | – | < 1e-05 s⁻¹ | – | – | –
45 | C8U A12C G43C U49C | – | < 1e-05 s⁻¹ | < 1e-05 s⁻¹ | < 1e-05 s⁻¹ | < 1e-05 s⁻¹
46 | C8U G41U C58U C68A C70G | – | < 1e-05 s⁻¹ | – | – | –
47 | G7U G59A | – | < 1e-05 s⁻¹ | < 1e-05 s⁻¹ | < 1e-05 s⁻¹ | < 1e-05 s⁻¹
48 | C8G U56A G62U | – | < 1e-05 s⁻¹ | < 1e-05 s⁻¹ | < 1e-05 s⁻¹ | –
49 | A6U G40A A52C | – | < 1e-05 s⁻¹ | < 1e-05 s⁻¹ | < 1e-05 s⁻¹ | –
50 | G7U C11U G29U U30A | – | < 1e-05 s⁻¹ | < 1e-05 s⁻¹ | – | –
51 | G7U A14C A48U | – | < 1e-05 s⁻¹ | < 1e-05 s⁻¹ | < 1e-05 s⁻¹ | –
52 | A6U U45A A53C | – | < 1e-05 s⁻¹ | 4.01e-05 ± 1.9e-05 s⁻¹ | 4.74e-05 ± 2.2e-05 s⁻¹ | –
